Reference: PMC4339652 (2015)

Molecular target: T1, G3p N1 (Filamentous phage, UniProt O80297)
T1 chain: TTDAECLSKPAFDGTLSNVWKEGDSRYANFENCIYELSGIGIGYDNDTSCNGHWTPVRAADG
Test: SPR

B1: TolA TolAIII (protein)
chain: GGGAKGNNASPAGSGNTKNNGASGADINNYAGQIKSAIESKFYDASSYAGKTCTLRIKLAPDGMLLDIKPEGGDPALCQAALAAAKLAKIPKPPSQAVYEVFKNAPLDFKP
  Kd: 14.9 µM
